One molecule from patent US20110014287A1 (ALLERGAN, published 2011) can be followed below.

Test [1] concerns the target T1, silk fibroin, substantially sericin-depleted, from Bombyx mori silk (Bombyx mori, UniProt P05790 22-5263; P21828 17-262, limits assumed).
T1 construct: also called silk fibroin hydrogel; silk gel
Nature of the test: HPLC of 23RGD extracted from silk precipitates, across formulations. The procedure: (§1) The amount of 23RGD bound to silk precipitates was quantified by analyzing lyophilized samples. The 23RGD was removed by incubating the samples for 4 hours in a dissolving buffer, then centrifuging on an Eppendorf 5415C (Eppendorf North America Inc., Westbury, N.Y.) at 16,000 g (RCF) for 30 minutes and the supernatant collected. This supernatant was then centrifuged in identical fashion and the final supernatant collected for HPLC analysis using a PerkinElmer Series 200 (PerkinElmer, Waltham, Mass.). The 23RGD peak areas from each curve were compared against a standard curve. 1-Way ANOVA was used to test for significant differences caused by changing silk concentration, 23RGD concentration, and accelerant volume. A Student's t-test was used to test the significance of differences resulting from altered ethanol concentrations.

In test [2] the target is T1, silk fibroin, substantially …. Nature of the test: HPLC of 23RGD extracted from rinsed silk hydrogel, peak area against a 23RGD standard curve. The source says: 23RGD-infused gels were studied to quantify the amount of 23RGD bound to the silk-hydrogel device as well as the quantity of free 23RGD which might be rinsed free of the device under relevant conditions. Briefly, samples of 23RGD-infused gel were cast and rinsed according to the methods above, with samples of rinse buffer being collected from each rinse for subsequent analysis by HPLC. Additionally, subsequent to the last rinse, the gel samples were mechanically pulverized by means of a stainless steel stirring rod and the adsorbed 23RGD removed by incubation for 4 hours in a dissolving buffer. This mixture of gel and solvent was then centrifuged on an Eppendorf 5415C at 16,000 g RCF for 30 minutes. The supernatant was collected and centrifuged another 30 minutes at 16,000 g RCF after which time the supernatant was collected in a sample vial for HPLC analysis. Samples of rinse buffer from the first and last rinse were centrifuged in the same fashion after being diluted with the same solvent the gel was extracted with in a volumetric ratio of 1 part rinse buffer to 4 parts solvent. To ensure 23RGD-hydrogel device rinse-exposed surface area was not a limiting factor, the same rinse and extraction process was performed upon devices pulverized after gelation and before rinsing.

For test [3] the target is unchanged. Briefly: HPLC of 23RGD extracted from lyophilized silk precipitate, against standard curve; RHI formulation. As to the method:
as §1

For test [4] the target is unchanged. Briefly: HPLC of 23RGD extracted from lyophilized silk precipitate, against standard curve; AVHI formulation. As to the method: as §1
Test [5] has the same target. Nature of the test: HPLC of 23RGD extracted from lyophilized silk precipitate, against standard curve; AVLO formulation. As to the method: as §1
Test [6] has the same target. Nature of the test: HPLC of 23RGD extracted from lyophilized silk precipitate, against standard curve; BASE formulation. The procedure: as §1
Test [7] has the same target. Briefly: HPLC of 23RGD extracted from lyophilized silk precipitate, against standard curve; SCLO formulation. The procedure: as §1
Test [8] has the same target. Nature of the test: HPLC of 23RGD extracted from lyophilized silk precipitate, against standard curve; SCVLO formulation. As to the method:
as §1

The target is the same in test [9]. Nature of the test: HPLC of 23RGD extracted from lyophilized silk precipitate, against standard curve; formulation labelled RLO in this sentence. The procedure: as §1
Test [10] has the same target. Briefly: HPLC of 23RGD extracted from lyophilized silk precipitate, against standard curve; formulation labelled RMED in this sentence. The procedure: as §1

B1: 23RGD peptide (HOOC-GRGDIPASSKG4SRL6R-NH2) (peptide)
peptide: GRGDIPASSKGGGGSRLLLLLLR
modifications: not fully specified; C-terminal -NH2 as printed (HOOC-GRGDIPASSKG4SRL6R-NH2)
notes: also called amphiphilic peptide
Consider B1, for which, in [1], the “apparent saturation 23RGD:silk ratio” value is ~10 23RGD:silk ratio. In test [2], the “23RGD:silk ratio bound to the gel” value was 3.35 23RGD:silk ratio. Also, the “23RGD:silk ratio bound to the precipitate” value was 10.7 23RGD:silk ratio in test [3]; 10.5 23RGD:silk ratio in test [4]; 5.2 23RGD:silk ratio in [5]; 8.7 23RGD:silk ratio in test [6]; 9.9 23RGD:silk ratio in test [7]; 11 23RGD:silk ratio in test [8]. In addition, the “23RGD:silk ratio bound to the precipitate” value is 1.1 23RGD:silk ratio in [9] and 6.95 23RGD:silk ratio in test [10].
